Where no end group is shown, it is not given here.

This test addresses TCRs of APC frameshift neopeptide specific T cell populations. The experiment in a line: flow cytometry, double staining with PE and APC labelled neopeptide-MHC multimers of T cells after 2 weeks of in vitro expansion; first panel from the left.

On to LILYYILPRKV (peptide-MHC, part only; not given: HLA-A2 heavy chain, construct, human, part only, also: bound in HLA-A2 MHC multimer, PE and APC labelled) [A2/…], for which the number in the upper right quadrant (MHC-Multimer PE and APC double positive), no percent sign printed was 0.31.

The values above are taken from patent US20180088121A1.
